Blank lines part the entries; values can stand above or below the binder they belong to.
Legend:
[1] = target: T1, integrin αvβ3 on integrin αvβ3-expressing K562 cells (UniProt P06756 31-1048; P05106 27-788, limits assumed); assay: flow cytometry, 500 nM antibody, Alexa488 anti-human Fc
T1 construct: whole, on cells; also called integrin ανβ3

[2] = target: T2, integrin αvβ5 on human colorectal cancer cell lines SW480 and LoVo (human, UniProt P06756 31-1048; P18084 24-799); assay: as above
T2 construct: whole, on cells; also called integrin ανβ5

[3] = target: T3, EpCAM (epithelial cell adhesion molecule) on human colorectal cancer cell lines SW480 and LoVo (human, UniProt P16422 24-314); assay: as above
T3 construct: whole, on cells; also called cell-surface EpCAM
T3 sequence (looked up): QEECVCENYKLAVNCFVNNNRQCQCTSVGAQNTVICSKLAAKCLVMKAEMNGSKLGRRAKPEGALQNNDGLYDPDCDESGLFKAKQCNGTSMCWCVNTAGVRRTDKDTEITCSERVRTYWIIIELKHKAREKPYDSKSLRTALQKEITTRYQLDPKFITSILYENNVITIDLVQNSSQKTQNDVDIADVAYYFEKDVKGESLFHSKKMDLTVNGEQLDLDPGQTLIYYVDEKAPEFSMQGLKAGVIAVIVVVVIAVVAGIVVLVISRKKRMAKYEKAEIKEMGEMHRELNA

[4] = target: T4, human neonatal Fc receptor (hFcRn) (human, UniProt P55899 24-297; P61769 21-119, limits assumed); assay: SPR (Biacore 2000), FcRn immobilised, pH 6.0, antibody 2000-62.5 nM; pH 6.0
T4 construct: Immobilised on the CM5 chip, pH 6.0

[5] = target: T4, human neonatal Fc receptor (hFcRn); assay: SPR (Biacore 2000), FcRn immobilised, pH 6.0, antibody 2000-62.5 nM
[6] = target: T4, human neonatal Fc receptor (hFcRn); assay: SPR (Biacore 2000), FcRn immobilised, pH 6.0, antibody 200-6.25 nM
[7] = target: T3, EpCAM (epithelial cell adhesion …); assay: flow cytometry on LoVo cells, 100 nM antibody, Alexa488 anti-human Fc

binding result [1]: binds
binding result [2]: binds
B1: RT22-i38 MG (antibody, IgG1, V domains shown)
VH: EVQLVESGGGLVQPGGSLRLSCAASGFTFSDFSMSWVRQAPGKGLEWVSYISRTSHTTYYADSVKGRFTISRDNSKNTLYLQMNSLRAEDTAVYYCARGFKMDYWGQGTLVTVSS
VL: DLVMTQSPSSLSASVGDRVTITCKSSQSLLNSRTGKTYLAWYQQKPGKAPKLLIYWASTRESGVPSRFSGSGSGTDFTLTISSLQPEDFATYFCQQYWYWMYTFGQGTKVEIKR
notes: Intact IgG1,κ

binding result [1]: binds
binding result [2]: binds
B2: RT22-i39 MG (antibody, IgG1, V domains shown)
VH: EVQLVESGGGLVQPGGSLRLSCAASGFTFSDFSMSWVRQAPGKGLEWVSYISRTSHTTYYADSVKGRFTISRDNSKNTLYLQMNSLRAEDTAVYYCARGFKMDYWGQGTLVTVSS
VL: DGARYCRGDCFDGMGSSSNDLVMTQSPSSLSASVGDRVTITCKSSQSLLNSRDGKNYLAWYQQKPGKAPKLLIYWASTRESGVPSRFSGSGSGTDFTLTISSLQPEDFATYFCQQYWYWMYTFGQGTKVEIKR
notes: Intact IgG1,κ

binding result [3]: binds
B3: RT22-ep58 MG (antibody, IgG1, V domains shown)
VH: EVQLVESGGGLVQPGGSLRLSCAASGFTFSDFSMSWVRQAPGKGLEWVSYISRTSHTTYYADSVKGRFTISRDNSKNTLYLQMNSLRAEDTAVYYCARGFKMDYWGQGTLVTVSS
VL: DIQMTQSPSSLSASVGDRVTITCKSSQSLLNSRTGKTYLAWYQQKPGKAPKLLIYWASTRESGVPSRFSGSGSGTDFTLTISSLQPEDFATYFCQQYWYWMYTFGQGTKVEIKR
notes: Intact IgG1,κ

Kd [4]: 2700 nM
B4: epRas13 (RT22 VH, IgG1 N434D, hT4-ep59 GSSG light chain) (antibody)
heavy: not shown
VL: EHLHCLGSLCWPGSSGDIQMTQSPSSLSASVGDRVTITCKSSQSLLNSRDGKNYLAWYQQKPGKAPKLLIYWASTRESGVPSRFSGSGSGTDFTLTISSLQPEDFATYFCQQYWYWMYTFGQGTKVEIKR

Kd [5]: 3.57 µM
B5: epRas83 (RT22 VH, IgG1 LALA-PG, N434D, hT4-ep59 GSSG light chain) (antibody)
heavy: not shown
VL: EHLHCLGSLCWPGSSGDIQMTQSPSSLSASVGDRVTITCKSSQSLLNSRDGKNYLAWYQQKPGKAPKLLIYWASTRESGVPSRFSGSGSGTDFTLTISSLQPEDFATYFCQQYWYWMYTFGQGTKVEIKR

Kd [6]: 148 nM
B6: epRas03 (RT22 VH, IgG1, hT4-ep59 GSSG light chain) (antibody)
heavy: not shown
VL: EHLHCLGSLCWPGSSGDIQMTQSPSSLSASVGDRVTITCKSSQSLLNSRDGKNYLAWYQQKPGKAPKLLIYWASTRESGVPSRFSGSGSGTDFTLTISSLQPEDFATYFCQQYWYWMYTFGQGTKVEIKR
notes: Differs from epRas03 MG by the linker of the light chain

binding result [3]: binds
B7: RT22-ep59 MG (antibody, human IgG1)
heavy: not shown
VL: EHLHCLGSLCWPMGSSSNDIQMTQSPSSLSASVGDRVTITCKSSQSLLNSRDGKNYLAWYQQKPGKAPKLLIYWASTRESGVPSRFSGSGSGTDFTLTISSLQPEDFATYFCQQYWYWMYTFGQGTKVEIKR
notes: also called epRas03 MG

binding result [7]: binds
B8: epRas23 MG (antibody, human IgG1)
heavy: not shown
VL: EHLHCLGSLCWPMGSSSNDIQMTQSPSSLSASVGDRVTITCKSSQSLLNSRDGKNYLAWYQQKPGKAPKLLIYWASTRESGVPSRFSGSGSGTDFTLTISSLQPEDFATYFCQQYWYWMYTFGQGTKVEIKR
